Reference: patent publication US7432061B2, “Assays for measuring matrix metalloproteinase activities” (BioZyme, Inc., priority 2002, dated 2008)

Target: T1, gelatinase A (Homo sapiens, UniProt P08253)
T1 sequence (P08253 110-660): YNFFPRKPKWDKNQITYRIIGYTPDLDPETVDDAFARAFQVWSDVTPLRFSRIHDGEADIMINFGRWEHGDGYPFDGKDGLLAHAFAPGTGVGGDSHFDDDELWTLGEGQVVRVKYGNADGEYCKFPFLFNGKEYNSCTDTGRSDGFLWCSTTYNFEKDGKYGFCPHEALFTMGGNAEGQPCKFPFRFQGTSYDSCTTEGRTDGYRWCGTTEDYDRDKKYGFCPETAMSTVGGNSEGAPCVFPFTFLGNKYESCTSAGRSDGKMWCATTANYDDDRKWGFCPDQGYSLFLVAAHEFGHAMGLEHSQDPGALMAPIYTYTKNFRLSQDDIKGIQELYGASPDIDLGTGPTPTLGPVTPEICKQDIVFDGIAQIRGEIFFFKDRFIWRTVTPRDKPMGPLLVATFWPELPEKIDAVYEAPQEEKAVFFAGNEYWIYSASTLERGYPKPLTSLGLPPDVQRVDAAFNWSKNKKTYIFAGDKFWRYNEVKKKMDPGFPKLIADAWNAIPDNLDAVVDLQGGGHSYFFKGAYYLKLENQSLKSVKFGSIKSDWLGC
Assay: Inhibition with type II collagen, FlSub3 cleavage
Format: biochemical
Details: for Improvement In Selectivity (Gel-A v Col-3): 44 ug/ml Type II Collagen vs no Type II Collagen, FlSb3; for Average Percent Inhibition from 1.1 to 6.6 Hours / Average Percent Inhibition: GELA(.025 nM)

## Type II Collagen: bovine type II collagen, full length MMP substrate used as inhibitor of gelatinases
  Improvement In Selectivity (Gel-A v Col-3): 80 fold
Listed as collagen
  Improvement In Selectivity (Gel-A v Col-3): approximately 80 fold
Type II Collagen 0.18 ug/ml
  Average Percent Inhibition from 1.1 to 6.6 Hours: 2%
Type II Collagen 0.54 ug/ml
  Average Percent Inhibition from 1.1 to 6.6 Hours: 6%
Type II Collagen 1.63 ug/ml
  Average Percent Inhibition from 1.1 to 6.6 Hours: −52%
Type II Collagen 4.89 ug/ml
  Average Percent Inhibition from 1.1 to 6.6 Hours: 32%
Type II Collagen 14.67 ug/ml
  Average Percent Inhibition from 1.1 to 6.6 Hours: 56%
Type II Collagen 44.00 ug/ml
  Average Percent Inhibition from 1.1 to 6.6 Hours: 83%
TypeIICOL(1.6 ug/ul), FISb3, hour 0.10 to 1.10
  Average Percent Inhibition: −27%
TypeIICOL(1.6 ug/ul), FISb3, hour 1.10 to 2.10
  Average Percent Inhibition: 4%
TypeIICOL(1.6 ug/ul), FISb3, hour 1.10 to 6.60
  Average Percent Inhibition: −52%
TypeIICOL(1.6 ug/ul), FISb3, hour 2.10 to 3.10
  Average Percent Inhibition: −11%
TypeIICOL(1.6 ug/ul), FISb3, hour 3.10 to 4.10
  Average Percent Inhibition: −37%
TypeIICOL(1.6 ug/ul), FISb3, hour 4.10 to 5.10
  Average Percent Inhibition: −68%
TypeIICOL(1.6 ug/ul), FISb3, hour 5.10 to 6.10
  Average Percent Inhibition: −104%
TypeIICOL(4.9 ug/ul), FISb3, hour 0.10 to 1.10
  Average Percent Inhibition: 37%
TypeIICOL(4.9 ug/ul), FISb3, hour 1.10 to 2.10
  Average Percent Inhibition: 43%
TypeIICOL(4.9 ug/ul), FISb3, hour 1.10 to 6.60
  Average Percent Inhibition: 32%
TypeIICOL(4.9 ug/ul), FISb3, hour 2.10 to 3.10
  Average Percent Inhibition: 46%
TypeIICOL(4.9 ug/ul), FISb3, hour 3.10 to 4.10
  Average Percent Inhibition: 37%
TypeIICOL(4.9 ug/ul), FISb3, hour 4.10 to 5.10
  Average Percent Inhibition: 27%
TypeIICOL(4.9 ug/ul), FISb3, hour 5.10 to 6.10
  Average Percent Inhibition: 19%
TypeIICOL(15 ug/ul), FISb3, hour 0.10 to 1.10
  Average Percent Inhibition: 56%
TypeIICOL(15 ug/ul), FISb3, hour 1.10 to 2.10
  Average Percent Inhibition: 64%
TypeIICOL(15 ug/ul), FISb3, hour 1.10 to 6.60
  Average Percent Inhibition: 56%
TypeIICOL(15 ug/ul), FISb3, hour 2.10 to 3.10
  Average Percent Inhibition: 70%
TypeIICOL(15 ug/ul), FISb3, hour 3.10 to 4.10
  Average Percent Inhibition: 64%
TypeIICOL(15 ug/ul), FISb3, hour 4.10 to 5.10
  Average Percent Inhibition: 53%
TypeIICOL(15 ug/ul), FISb3, hour 5.10 to 6.10
  Average Percent Inhibition: 41%
TypeIICOL(44 ug/ul), FISb3, hour 0.10 to 1.10
  Average Percent Inhibition: 58%
TypeIICOL(44 ug/ul), FISb3, hour 1.10 to 2.10
  Average Percent Inhibition: 78%
TypeIICOL(44 ug/ul), FISb3, hour 1.10 to 6.60
  Average Percent Inhibition: 83%
TypeIICOL(44 ug/ul), FISb3, hour 2.10 to 3.10
  Average Percent Inhibition: 86%
TypeIICOL(44 ug/ul), FISb3, hour 3.10 to 4.10
  Average Percent Inhibition: 87%
TypeIICOL(44 ug/ul), FISb3, hour 4.10 to 5.10
  Average Percent Inhibition: 85%
TypeIICOL(44 ug/ul), FISb3, hour 5.10 to 6.10
  Average Percent Inhibition: 82%
TypeIICOL(.18 ug/ul), FISb3, hour 0.10 to 1.10
  Average Percent Inhibition: 3%
TypeIICOL(.18 ug/ul), FISb3, hour 1.10 to 2.10
  Average Percent Inhibition: 9%
TypeIICOL(.18 ug/ul), FISb3, hour 1.10 to 6.60
  Average Percent Inhibition: 2%
TypeIICOL(.18 ug/ul), FISb3, hour 2.10 to 3.10
  Average Percent Inhibition: 7%
TypeIICOL(.18 ug/ul), FISb3, hour 3.10 to 4.10
  Average Percent Inhibition: 3%
TypeIICOL(.18 ug/ul), FISb3, hour 4.10 to 5.10
  Average Percent Inhibition: 0%
TypeIICOL(.18 ug/ul), FISb3, hour 5.10 to 6.10
  Average Percent Inhibition: −3%
TypeIICOL(.55 ug/ul), FISb3, hour 0.10 to 1.10
  Average Percent Inhibition: 2%
TypeIICOL(.55 ug/ul), FISb3, hour 1.10 to 2.10
  Average Percent Inhibition: 11%
TypeIICOL(.55 ug/ul), FISb3, hour 1.10 to 6.60
  Average Percent Inhibition: 6%
TypeIICOL(.55 ug/ul), FISb3, hour 2.10 to 3.10
  Average Percent Inhibition: 12%
TypeIICOL(.55 ug/ul), FISb3, hour 3.10 to 4.10
  Average Percent Inhibition: 8%
TypeIICOL(.55 ug/ul), FISb3, hour 4.10 to 5.10
  Average Percent Inhibition: 4%
TypeIICOL(.55 ug/ul), FISb3, hour 5.10 to 6.10
  Average Percent Inhibition: −1%
Highest concentration (44 ug/ml), six hour time course, FlSub3
  inhibition of gelatinase A by type II collagen: Almost complete inhibition
